Data set [1] addresses T1, Ms0535 (GntR family, FadR/VanR-like regulator) (Mycobacterium smegmatis mc2 155, UniProt A0QPV8 1-212). Description: EMSA; 0-4 uM protein; only one shifted band. As to conditions: protein: recombinant; tags: His-tag (pET28a); chain copies: 2; blunt. A general note: Mobility shift assays separate free from complexed probe on a gel.
Data set [2] deals with T1, Ms0535 (GntR family, FadR/VanR-like …). Description: EMSA; 0-4 uM protein. As to conditions: protein: recombinant; tags: His-tag (pET28a); chain copies: 2; blunt.

This note sets out measurements from article PMC4609117.

B1: Ms0535p1 (one IR mutated) (dsDNA)
DNA 1: CACACCGTTCCATGCATGTTCTTGCATGCAAGGCGCGCTA
DNA 2: TAGCGCGCCTTGCATGCAAGAACATGCATGGAACGGTGTG
For the molecule B1, the binding result in data set [1] is recorded as “binds”.

B2: Ms0535p0 (dsDNA)
DNA 1: CACACCGCCTTGCATGCATTCTTGCATGCAAGGCGCGCTA
DNA 2: TAGCGCGCCTTGCATGCAAGAATGCATGCAAGGCGGTGTG
As to B2, the binding result in data set [2] is “binds”.

B3: Ms0535p7 (both IRs mutated) (dsDNA)
DNA 1: CACACCGTTCCATGCATGTTCTCATGCATGGAACGCGCTA
DNA 2: TAGCGCGTTCCATGCATGAGAACATGCATGGAACGGTGTG
On to B3, for which the binding result in data set [2] is given as “no binding”.

B4: Ms0535p2 (one IR mutated) (dsDNA)
DNA 1: CACACCGCCTTGCATGCATTCTCATGCATGGCCCGCGCTA
DNA 2: TAGCGCGGGCCATGCATGAGAATGCATGCAAGGCGGTGTG
With B4, the binding result in data set [1] is “binds”.
